In IntAct's records for PubMed 23518348:

B1: Androgen receptor (Homo sapiens), P10275 (parent)
chain: MEVQLGLGRVYPRPPSKTYRGAFQNLFQSVREVIQNPGPRHPEAASAAPPGASLLLLQQQQQQQQQQQQQQQQQQQQQQQETSPRQQQQQQGEDGSPQAHRRGPTGYLVLDEEQQPSQPQSALECHPERGCVPEPGAAVAASKGLPQQLPAPPDEDDSAAPSTLSLLGPTFPGLSSCSADLKDILSEASTMQLLQQQQQEAVSEGSSSGRAREASGAPTSSKDNYLGGTSTISDNAKELCKAVSVSMGLGVEALEHLSPGEQLRGDCMYAPLLGVPPAVRPTPCAPLAECKGSLLDDSAGKSTEDTAEYSPFKGGYTKGLEGESLGCSGSAAAGSSGTLELPSTLSLYKSGALDEAAAYQSRDYYNFPLALAGPPPPPPPPHPHARIKLENPLDYGSAWAAAAAQCRYGDLASLHGAGAAGPGSGSPSAAASSSWHTLFTAEEGQLYGPCGGGGGGGGGGGGGGGGGGGGGGGEAGAVAPYGYTRPPQGLAGQESDFTAPDVWYPGGMVSRVPYPSPTCVKSEMGPWMDSYSGPYGDMRLETARDHVLPIDYYFPPQKTCLICGDEASGCHYGALTCGSCKVFFKRAAEGKQKYLCASRNDCTIDKFRRKNCPSCRLRKCYEAGMTLGARKLKKLGNLKLQEEGEASSTTSPTEETTQKLTVSHIEGYECQPIFLNVLEAIEPGVVCAGHDNNQPDSFAALLSSLNELGERQLVHVVKWAKALPGFRNLHVDDQMAVIQYSWMGLMVFAMGWRSFTNVNSRMLYFAPDLVFNEYRMHKSRMYSQCVRMRHLSQEFGWLQITPQEFLCMKALLLFSIIPVDGLKNQKFFDELRMNYIKELDRIIACKRKNPTSCSRRFYQLTKLLDSVQPIARELHQFTFDLLIKSHMVSVDFPEMMAEIISVQVPKILSGKVKPIYFHTQ
partner: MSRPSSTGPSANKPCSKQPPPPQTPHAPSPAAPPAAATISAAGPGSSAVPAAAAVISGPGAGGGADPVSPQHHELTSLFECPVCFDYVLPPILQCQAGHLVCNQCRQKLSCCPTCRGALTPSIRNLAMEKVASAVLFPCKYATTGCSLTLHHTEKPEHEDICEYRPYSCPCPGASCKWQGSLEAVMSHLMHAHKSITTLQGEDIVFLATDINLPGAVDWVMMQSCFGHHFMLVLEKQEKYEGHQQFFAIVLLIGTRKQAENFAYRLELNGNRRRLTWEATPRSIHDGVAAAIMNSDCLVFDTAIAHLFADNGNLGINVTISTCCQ

Variants of: B1
Conditions: with siah2_mouse Siah2, Q06986

Variant	effect of a mutation on the interaction
F755L	decreasing interaction
T878A	decreasing interaction
V731M	decreasing interaction
V716M	decreasing interaction
Q799E	decreasing interaction
R727L	decreasing interaction
L702H	decreasing interaction
H875Y	decreasing interaction
